Test results taken from patent US20230212285A1.

Target: human C-KIT-Fc protein (human) (UniProt P10721)
Assay: direct ELISA, IgG at 1 µg/ml

Row | OD450 nm [OD450 nm] | Binder
1 | > 1.8 | E-C2 (antibody, human IgG1, V domains shown) VH: QVQLVQSGAEVKKPGASVKVSCKASGYTFTDYYMNWVRQAPGQGLEWMGRIYPGSGNTYYAQKFQGRVTMTRDTSTSTVYMELSSLRSEDTAVYYCARGVYYLDYWGQGTLVTVSS VL: DIQMTQSPSSLSASVGDRVTITCRASQGIRTNVAWLQQKPGKAPKSLIYSASYRQSGVPSRFSGSGSGTDFTLTISSLQPEDFATYYCQQYNSYPRTFGGGTKVEIK
2 | > 1.8 | MH1 IgG1 (antibody, V domains shown) VH: QVQLVQSGAEVKKPGASVKVSCKASGYTFTDYYMNWVRQAPGQGLEWMGRIYPGSGNTYYAQKFQGRVTMTRDTSTSTVYMELSSLRSEDTAVYYCARGVYYYDYWGQGTLVTVSS VL: DIQMTQSPSSLSASVGDRVTITCRASQGIRTNLAWFQQKPGKAPKSLIYAASSLQSGVPSRFSGSGSGTDFTLTISSLQPEDFATYYCQQYNSYPRTFGGGTKVEIK
